{"source": "patent US9074018B2", "about": "“Reconstituted pulmonary surfactants” (CHIESI FARMACEUTICI S.p.A, priority 2012, dated 2015)", "assay": "Viscosity of the surfactant preparation", "format": "physicochemical", "conditions": "mixed with a phospholipid mixture consisting of DPPC:POPG 7:3 (w/w)", "excerpt": "Advantageously the viscosity of said formulations is less than 20 centiPoise (cP), preferably less than 15 cP, upon determination with a common viscometer available on the market according to methods known in the art.", "data": [{"sequence": "CWLCRALIKRFNRYLTPQLVCRLVLRC [ox Mini-B27, SP-B analogue of formula (III), shorter analogue of ox Mini-B(Leu)]", "values": [{"measurement": "viscosity of the preparation", "value": "viscous"}]}]}
